# Measurements reported in publication PMC10728100, “Structural and biochemical investigations of a HEAT-repeat protein involved in the cytosolic iron-sulfur cluster assembly pathway” (Communications Biology, 2023).
# Where a chain is given by its changes, count along the chain named. Several values for one entry are separate records, joined by “and”; a condition that tells them apart may be missing. Identical values can stand only once.
# T1: SUMO-tagged ScMet18 I973A (S. cerevisiae, UniProt P40469 1-1032, I973A)
# T1 construct: Met18, S. cerevisiae; substitution in HEAT-repeat 22; source: E. coli Rosetta2(DE3), purified (Ni-NTA, gel filtration); not shown: His, N-terminal, kept; SUMO, N-terminal, kept
# T1 sequence: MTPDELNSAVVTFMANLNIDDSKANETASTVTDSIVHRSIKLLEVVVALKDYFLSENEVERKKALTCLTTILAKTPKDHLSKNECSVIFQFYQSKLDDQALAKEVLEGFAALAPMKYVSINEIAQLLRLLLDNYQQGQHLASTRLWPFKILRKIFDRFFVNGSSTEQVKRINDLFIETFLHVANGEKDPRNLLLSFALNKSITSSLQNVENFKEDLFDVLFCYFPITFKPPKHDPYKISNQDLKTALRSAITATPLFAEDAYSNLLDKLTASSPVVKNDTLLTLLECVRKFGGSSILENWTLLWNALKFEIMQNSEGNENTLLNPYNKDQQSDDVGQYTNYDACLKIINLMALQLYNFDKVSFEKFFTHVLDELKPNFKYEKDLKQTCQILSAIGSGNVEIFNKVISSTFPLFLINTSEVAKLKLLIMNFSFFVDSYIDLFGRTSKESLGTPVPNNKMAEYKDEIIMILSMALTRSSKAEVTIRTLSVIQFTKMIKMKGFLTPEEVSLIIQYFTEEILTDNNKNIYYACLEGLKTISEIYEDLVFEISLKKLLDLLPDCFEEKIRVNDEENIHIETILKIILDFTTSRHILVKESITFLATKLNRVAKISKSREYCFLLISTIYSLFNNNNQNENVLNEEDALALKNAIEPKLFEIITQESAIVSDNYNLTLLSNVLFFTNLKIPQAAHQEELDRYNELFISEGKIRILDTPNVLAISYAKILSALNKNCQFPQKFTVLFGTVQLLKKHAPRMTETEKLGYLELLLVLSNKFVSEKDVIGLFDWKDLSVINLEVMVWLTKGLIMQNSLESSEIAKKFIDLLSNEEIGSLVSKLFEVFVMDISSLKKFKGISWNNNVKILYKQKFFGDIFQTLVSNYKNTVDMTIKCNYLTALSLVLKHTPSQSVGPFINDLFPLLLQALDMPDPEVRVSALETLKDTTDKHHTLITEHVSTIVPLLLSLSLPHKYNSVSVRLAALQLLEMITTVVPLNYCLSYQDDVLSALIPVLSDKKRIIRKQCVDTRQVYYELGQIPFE
# B1: untagged ScMet18 (S. cerevisiae Met18, His-SUMO tag removed by SUMO protease) (natural protein)
# chain: T1 sequence with A973I
# notes: Met18 (MMS19 in humans), S. cerevisiae; Met18 gene amplified from genomic DNA; 118 kDa; model holds residues 9-225, 242-314 and 338-1029; Mixture of monomers, dimers, tetramers and hexamers in solution; hexamer and tetramer by cryo-EM; also called SUMO-cleaved ScMet18; source: E. coli Rosetta2(DE3), purified (Ni-NTA, gel filtration; tag cut with SUMO protease, Ni-NTA flow through); not shown: …
# B2: ScLeu1 with N-terminal His tag (natural protein, S. cerevisiae, UniProt P07264 1-779, looked up)
# chain: MVYTPSKGPRTLYDKVFDAHVVHQDENGSFLLYIDRHLVHEVTSPQAFEGLENAGRKVRRVDCTLATVDHNIPTESRKNFKSLDTFIKQTDSRLQVKTLENNVKQFGVPYFGMSDARQGIVHTIGPEEGFTLPGTTVVCGDSHTSTHGAFGSLAFGIGTSEVEHVLATQTIIQAKSKNMRITVNGKLSPGITSKDLILYIIGLIGTAGGTGCVIEFAGEAIEALSMEARMSMCNMAIEAGARAGMIKPDETTFQYTKGRPLAPKGAEWEKAVAYWKTLKTDEGAKFDHEINIEAVDVIPTITWGTSPQDALPITGSVPDPKNVTDPIKKSGMERALAYMGLEPNTPLKSIKVDKVFIGSCTNGRIEDLRSAAAVVRGQKLASNIKLAMVVPGSGLVKKQAEAEGLDKIFQEAGFEWREAGCSICLGMNPDILDAYERCASTSNRNFEGRQGALSRTHLMSPAMAAAAGIAGHFVDIREFEYKDQDQSSPKVEVTSEDEKELESAAYDHAEPVQPEDAPQDIANDELKDIPVKSDDTPAKPSSSGMKPFLTLEGISAPLDKANVDTDAIIPKQFLKTIKRTGLKKGLFYEWRFRKDDQGKDQETDFVLNVEPWREAEILVVTGDNFGCGSSREHAPWALKDFGIKSIIAPSYGDIFYNNSFKNGLLPIRLDQQIIIDKLIPIANKGGKLCVDLPNQKILDSDGNVLVDHFEIEPFRKHCLVNGLDDIGITLQKEEYISRYEALRREKYSFLEGGSKLLKFDNVPKRKAVTTTFDKVHQDW
# notes: Leu1, isopropylmalate isomerase, S. cerevisiae; also called HisLeu1; source: purified
# B3: SUMO-tagged ScMet18, wild type (N-terminal His-tag followed by SUMO solubility tag) (natural protein, S. cerevisiae)
# chain: T1 sequence with A973I
# notes: Met18, S. cerevisiae; Met18 gene amplified from genomic DNA; 131 kDa with the tag; also called SUMOMet18; SUMOScMet18; source: E. coli Rosetta2(DE3), purified (Ni-NTA, gel filtration); not shown: His, N-terminal, kept; SUMO, N-terminal, kept
# Key:
# [1] = target: the molecule itself; experiment: mass photometry; ScMet18 alone (SUMO-tagged or untagged) at 0.050 µM in 50 mM Tris pH 8.0, 100 mM NaCl, 1% glycerol, 5 mM BME
# [2] = target: the molecule itself; experiment: cryo-EM structure; chameleon-prepared grids; untagged ScMet18 at 2 µg/µL (15 µM) in 50 mM Tris pH 8.0, 100 mM NaCl, 1% glycerol, 1 mM BME; 24 °C
# [3] = target: the molecule itself; experiment: cryo-EM structure; Vitrobot-plunged grids; untagged ScMet18 at 1.2 mg/mL (9 µM) in 50 mM HEPES pH 7.5, 100 mM NaCl, 1% glycerol, 1 mM BME, 33 mM sodium acetate; 10 °C; D3 symmetry
# [4] = target: B3; experiment: pull-down; as the ScCia2 bait pull-down, but ScLeu1 and ScCia1 included in addition to the SUMO-tagged ScMet18 variant and the strep-tagged ScCia2 bait; Strep-Tactin XT resin; SDS-PAGE; conditions: both partners purified
# [5] = target: T1, SUMO-tagged ScMet18 I973A; experiment: as above; conditions: both partners purified
Binder,stoichiometry N [1],stoichiometry N [2],stoichiometry N [3],binding result [4],binding result [5]
B1,2,6 and 4,6,,
B2,,,,binds,binds
B3,2 and 4 and 6,,,,
